Experimental data: IntAct's records for PubMed 31515488

B1: Activated CDC42 kinase 1 (Homo sapiens), Q07912-2 (parent)
chain: MQPEEGTGWLLELLSEVQLQQYFLRLRDDLNVTRLSHFEYVKNEDLEKIGMGRPGQRRLWEAVKRRKALCKRKSWMSKVFSGKRLEAEFPPHHSQSTFRKTSPAPGGPAGEGPLQSLTCLIGEKDLRLLEKLGDGSFGVVRRGEWDAPSGKTVSVAVKCLKPDVLSQPEAMDDFIREVNAMHSLDHRNLIRLYGVVLTPPMKMVTELAPLGSLLDRLRKHQGHFLLGTLSRYAVQVAEGMGYLESKRFIHRDLAARNLLLATRDLVKIGDFGLMRALPQNDDHYVMQEHRKVPFAWCAPESLKTRTFSHASDTWMFGVTLWEMFTYGQEPWIGLNGSQILHKIDKEGERLPRPEDCPQDIYNVMVQCWAHKPEDRPTFVALRDFLLEAQPTDMRALQDFEEPDKLHIQMNDVITVIEGRAENYWWRGQNTRTLCVGPFPRNVVTSVAGLSAQDISQPLQNSFIHTGHGDSDPRHCWGFPDRIDECPFSAFSPGHPPAETCGQVLWTGRREACASDPRLHPVSSRTKGL
partner: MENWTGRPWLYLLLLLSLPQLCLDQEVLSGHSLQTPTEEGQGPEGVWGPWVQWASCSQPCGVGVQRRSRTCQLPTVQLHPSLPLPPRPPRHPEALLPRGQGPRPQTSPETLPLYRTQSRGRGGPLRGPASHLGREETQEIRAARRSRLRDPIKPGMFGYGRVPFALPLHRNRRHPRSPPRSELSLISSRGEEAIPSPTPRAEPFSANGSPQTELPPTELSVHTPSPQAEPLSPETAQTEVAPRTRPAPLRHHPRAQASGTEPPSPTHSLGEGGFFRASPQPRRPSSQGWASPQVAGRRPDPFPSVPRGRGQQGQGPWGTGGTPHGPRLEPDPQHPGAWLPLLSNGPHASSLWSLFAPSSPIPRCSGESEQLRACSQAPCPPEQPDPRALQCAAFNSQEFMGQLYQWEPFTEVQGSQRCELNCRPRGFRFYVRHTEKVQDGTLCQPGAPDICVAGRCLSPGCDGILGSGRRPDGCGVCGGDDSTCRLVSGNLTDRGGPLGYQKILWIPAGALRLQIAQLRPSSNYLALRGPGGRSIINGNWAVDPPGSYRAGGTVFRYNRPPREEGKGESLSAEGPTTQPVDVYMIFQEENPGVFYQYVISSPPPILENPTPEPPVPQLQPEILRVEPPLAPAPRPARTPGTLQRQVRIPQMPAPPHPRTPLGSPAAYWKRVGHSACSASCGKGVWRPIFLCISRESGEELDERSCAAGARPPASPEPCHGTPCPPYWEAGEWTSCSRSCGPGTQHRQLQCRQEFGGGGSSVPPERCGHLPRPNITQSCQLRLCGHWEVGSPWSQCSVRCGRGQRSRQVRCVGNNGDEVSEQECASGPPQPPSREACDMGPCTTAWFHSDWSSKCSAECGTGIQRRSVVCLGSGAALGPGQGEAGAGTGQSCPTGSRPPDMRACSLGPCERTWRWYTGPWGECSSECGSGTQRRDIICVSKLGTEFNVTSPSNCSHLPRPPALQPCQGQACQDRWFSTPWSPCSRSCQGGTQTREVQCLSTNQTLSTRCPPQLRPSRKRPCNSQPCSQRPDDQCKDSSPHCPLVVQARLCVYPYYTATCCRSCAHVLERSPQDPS
B2: Homeobox protein VENTX (Homo sapiens), O95231 (parent)
chain: MRLSSSPPRGPQQLSSFGSVDWLSQSSCSGPTHTPRPADFSLGSLPGPGQTSGAREPPQAVSIKEAAGSSNLPAPERTMAGLSKEPNTLRAPRVRTAFTMEQVRTLEGVFQHHQYLSPLERKRLAREMQLSEVQIKTWFQNRRMKHKRQMQDPQLHSPFSGSLHAPPAFYSTSSGLANGLQLLCPWAPLSGPQALMLPPGSFWGLCQVAQEALASAGASCCGQPLASHPPTPGRPSLGPALSTGPRGLCAMPQTGDAF
B3: Four and a half LIM domains protein 3 (Homo sapiens), Q13643 (parent)
chain: MSESFDCAKCNESLYGRKYIQTDSGPYCVPCYDNTFANTCAECQQLIGHDSRELFYEDRHFHEGCFRCCRCQRSLADEPFTCQDSELLCNDCYCSAFSSQCSACGETVMPGSRKLEYGGQTWHEHCFLCSGCEQPLGSRSFVPDKGAHYCVPCYENKFAPRCARCSKTLTQGGVTYRDQPWHRECLVCTGCQTPLAGQQFTSRDEDPYCVACFGELFAPKCSSCKRPIVGLGGGKYVSFEDRHWHHNCFSCARCSTSLVGQGFVPDGDQVLCQGCSQAGP
partner: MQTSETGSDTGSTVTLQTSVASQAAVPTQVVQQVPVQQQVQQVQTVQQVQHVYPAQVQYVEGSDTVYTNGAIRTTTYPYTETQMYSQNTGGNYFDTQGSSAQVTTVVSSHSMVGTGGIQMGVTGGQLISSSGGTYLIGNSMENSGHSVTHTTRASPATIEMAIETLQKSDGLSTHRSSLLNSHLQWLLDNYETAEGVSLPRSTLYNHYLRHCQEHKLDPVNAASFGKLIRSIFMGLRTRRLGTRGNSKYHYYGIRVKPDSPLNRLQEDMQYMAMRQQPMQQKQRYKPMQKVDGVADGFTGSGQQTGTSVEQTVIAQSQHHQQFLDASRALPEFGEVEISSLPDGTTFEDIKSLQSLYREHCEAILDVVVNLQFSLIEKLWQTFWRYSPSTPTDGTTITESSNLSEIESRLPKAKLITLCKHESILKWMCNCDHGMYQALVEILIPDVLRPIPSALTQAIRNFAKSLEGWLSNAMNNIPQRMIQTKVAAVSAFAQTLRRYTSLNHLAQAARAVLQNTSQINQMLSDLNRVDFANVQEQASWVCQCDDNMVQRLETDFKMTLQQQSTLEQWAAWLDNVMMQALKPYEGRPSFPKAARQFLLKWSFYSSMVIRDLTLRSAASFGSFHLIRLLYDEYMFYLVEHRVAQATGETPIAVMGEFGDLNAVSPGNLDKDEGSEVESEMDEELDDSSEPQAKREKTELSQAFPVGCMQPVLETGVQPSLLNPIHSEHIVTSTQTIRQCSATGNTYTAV

Variants of: B1
Conditions: with atl4_human ADAMTSL4, Q6UY14

effect of a mutation on the interaction	Variant
with no effect	R34L

Variants of: B2
Conditions: with rbpms_human RBPMS

effect of a mutation on the interaction	Variant
with no effect	L42P
with no effect	M251V
with no effect	A226E

Variants of: B3
Conditions: with rfx3_human RFX3, P48380

effect of a mutation on the interaction	Variant
with no effect	R226H
